{
  "source": "the RNAGym collection of RNA variant scans (doi:10.7554/elife.90254)",
  "parents": {"B1": {"name": "LINE1-full (parent)", "chain": "UACGUAGGUGGUUUUCCCCUGAUAGUGCUAAGGGGGCCUGGAAGUUUGGACUGGGCAGAGCUCAACACAGCGUGGCAAAGUGGCUGUGGCUAGACUGCCUCUCUGGAUUCCUCGUCACUCAGCAGGGCAUCUCUGAGAGAAAUGCC"}},
  "data": [
    {"variants_of": "B1", "assay": "self-cleavage, relative activity (ratio to wild type); higher = more cleavage; in vitro, sequencing; the parent is a self-cleaving ribozyme", "values": [
      {"variant": "U13A A64U", "self-cleavage": 0.25},
      {"variant": "U13C A65G", "self-cleavage": 0.12},
      {"variant": "U13A A42G", "self-cleavage": 1.26},
      {"variant": "U12G A142C", "self-cleavage": 0.93},
      {"variant": "U12G A142G", "self-cleavage": 0.83},
      {"variant": "U13A U62C", "self-cleavage": 0.03},
      {"variant": "U13A U62A", "self-cleavage": 0.06},
      {"variant": "U12G C56U", "self-cleavage": 0.22},
      {"variant": "U12C U96C", "self-cleavage": 0.19},
      {"variant": "U12C U96A", "self-cleavage": 0.1},
      {"variant": "U12C C84U", "self-cleavage": 0.15},
      {"variant": "U12C A129G", "self-cleavage": 1.4},
      {"variant": "U12C U85C", "self-cleavage": 0.12},
      {"variant": "U12G A138U", "self-cleavage": 1.02},
      {"variant": "U13A A140G", "self-cleavage": 0.52},
      {"variant": "U12G U47C", "self-cleavage": 1.04},
      {"variant": "U12G A121U", "self-cleavage": 1.31},
      {"variant": "U12C A138G", "self-cleavage": 1.37},
      {"variant": "U12G U45C", "self-cleavage": 1.48},
      {"variant": "U13C A67G", "self-cleavage": 0.71},
      {"variant": "U13A U14C", "self-cleavage": 0.46},
      {"variant": "U13A U14A", "self-cleavage": 1.14},
      {"variant": "U12G A117G", "self-cleavage": 1.35},
      {"variant": "U12G U52C", "self-cleavage": 0.79},
      {"variant": "U12G U52A", "self-cleavage": 1.22},
      {"variant": "U13A U91C", "self-cleavage": 0.89},
      {"variant": "U13A U85C", "self-cleavage": 0.13},
      {"variant": "U12G G72A", "self-cleavage": 0.9},
      {"variant": "U12C A67C", "self-cleavage": 0.09},
      {"variant": "U12C A67G", "self-cleavage": 0.77},
      {"variant": "U12C A67U", "self-cleavage": 0.21},
      {"variant": "U13C A59U", "self-cleavage": 0.86},
      {"variant": "U13C A59G", "self-cleavage": 0.13},
      {"variant": "U13A C111U", "self-cleavage": 0.89},
      {"variant": "U12C C19A", "self-cleavage": 0.85},
      {"variant": "U13A C145U", "self-cleavage": 1.26},
      {"variant": "U13A U115C", "self-cleavage": 1.56},
      {"variant": "U13A U115G", "self-cleavage": 1.29},
      {"variant": "U13A U130C", "self-cleavage": 1.22},
      {"variant": "U12G A57G", "self-cleavage": 1.42},
      {"variant": "U12C C68U", "self-cleavage": 0.35},
      {"variant": "U13A U73A", "self-cleavage": 1.04},
      {"variant": "U13A U73C", "self-cleavage": 0.94},
      {"variant": "U12G A79G", "self-cleavage": 1.25},
      {"variant": "U12G A42C", "self-cleavage": 1.1},
      {"variant": "U12A G137U", "self-cleavage": 1.05},
      {"variant": "U12C C133A", "self-cleavage": 1.67},
      {"variant": "U12G C113U", "self-cleavage": 0.66},
      {"variant": "U12A U47A", "self-cleavage": 0.67},
      {"variant": "U12A U47C", "self-cleavage": 1.17},
      {"variant": "U12C G33U", "self-cleavage": 1.36},
      {"variant": "U12C G33C", "self-cleavage": 1.28},
      {"variant": "U12G A141G", "self-cleavage": 1.22},
      {"variant": "U13A U96C", "self-cleavage": 0.1},
      {"variant": "U13A U134C", "self-cleavage": 0.85},
      {"variant": "U12C G49U", "self-cleavage": 1.35},
      {"variant": "U12G C120A", "self-cleavage": 1.49},
      {"variant": "U12G U143C", "self-cleavage": 1.23},
      {"variant": "U12C G88A", "self-cleavage": 0.1},
      {"variant": "U12C C28U", "self-cleavage": 0.74},
      {"variant": "U12C C146G", "self-cleavage": 1.03},
      {"variant": "U12G U81C", "self-cleavage": 0.86},
      {"variant": "U12G G32A", "self-cleavage": 0.78},
      {"variant": "U12G C84U", "self-cleavage": 0.2},
      {"variant": "U13A A50G", "self-cleavage": 0.76},
      {"variant": "U12A G32A", "self-cleavage": 1.08},
      {"variant": "U12A G32C", "self-cleavage": 0.8},
      {"variant": "U13A A107G", "self-cleavage": 1.11},
      {"variant": "U13A A107U", "self-cleavage": 1.74},
      {"variant": "U12G A64G", "self-cleavage": 0.52},
      {"variant": "U12G A64C", "self-cleavage": 0.55},
      {"variant": "U13C A50U", "self-cleavage": 0.83},
      {"variant": "U12C U14G", "self-cleavage": 0.59},
      {"variant": "U12C U14A", "self-cleavage": 0.81},
      {"variant": "U12C G40U", "self-cleavage": 1.2},
      {"variant": "U13C A57G", "self-cleavage": 0.76},
      {"variant": "U13C A57U", "self-cleavage": 0.12},
      {"variant": "U13A C118U", "self-cleavage": 0.52},
      {"variant": "U12G A129C", "self-cleavage": 1.1},
      {"variant": "U12G A129G", "self-cleavage": 1.14},
      {"variant": "U12C G41A", "self-cleavage": 1.26},
      {"variant": "U12C U115C", "self-cleavage": 1.21},
      {"variant": "U12C U109C", "self-cleavage": 1.48},
      {"variant": "U12G U96A", "self-cleavage": 0.21},
      {"variant": "U13A U143A", "self-cleavage": 0.84},
      {"variant": "U13A U143G", "self-cleavage": 1.01},
      {"variant": "U12C U39C", "self-cleavage": 1.4},
      {"variant": "U12C U39A", "self-cleavage": 1.32},
      {"variant": "U12A U85A", "self-cleavage": 0.15},
      {"variant": "U12A G49A", "self-cleavage": 1.05},
      {"variant": "U12C G54A", "self-cleavage": 0.62},
      {"variant": "U13A U46A", "self-cleavage": 1.21},
      {"variant": "U13C A129C", "self-cleavage": 1.33},
      {"variant": "U13A U26A", "self-cleavage": 0.78},
      {"variant": "U13A U26C", "self-cleavage": 1.19},
      {"variant": "U13A A77G", "self-cleavage": 0.46},
      {"variant": "U12C A78C", "self-cleavage": 2.54},
      {"variant": "U12C A78G", "self-cleavage": 0.95},
      {"variant": "U12C G122U", "self-cleavage": 1.04},
      {"variant": "U13C A117U", "self-cleavage": 1.07},
      {"variant": "U13C A117G", "self-cleavage": 1.02},
      {"variant": "U12G G93A", "self-cleavage": 0},
      {"variant": "U12C U91C", "self-cleavage": 0.92},
      {"variant": "U13A C19A", "self-cleavage": 1.84},
      {"variant": "U13C A94G", "self-cleavage": 0.33},
      {"variant": "U12A U39C", "self-cleavage": 1.17},
      {"variant": "U12A U108C", "self-cleavage": 1.28},
      {"variant": "U12A U102C", "self-cleavage": 1.42},
      {"variant": "U12C A57U", "self-cleavage": 0.22},
      {"variant": "U12G U109C", "self-cleavage": 1.57},
      {"variant": "U12C U102A", "self-cleavage": 1.66},
      {"variant": "U13A G83A", "self-cleavage": 0.58},
      {"variant": "U12C A30G", "self-cleavage": 0.87},
      {"variant": "U12C A30U", "self-cleavage": 0.53},
      {"variant": "U12G U108G", "self-cleavage": 0.82},
      {"variant": "U12A U109A", "self-cleavage": 0.65},
      {"variant": "U12C U62C", "self-cleavage": 0.09},
      {"variant": "U12C U62A", "self-cleavage": 0.13},
      {"variant": "U12G U115G", "self-cleavage": 0},
      {"variant": "U12G U115A", "self-cleavage": 0.75},
      {"variant": "U12G U115C", "self-cleavage": 1.47},
      {"variant": "U12A U46C", "self-cleavage": 1.31},
      {"variant": "U12G U46C", "self-cleavage": 1.29},
      {"variant": "U12G G33A", "self-cleavage": 1.47},
      {"variant": "U12C G58A", "self-cleavage": 0.09},
      {"variant": "U12C C145G", "self-cleavage": 1.06},
      {"variant": "U12A U134A", "self-cleavage": 0.6},
      {"variant": "U12A U134C", "self-cleavage": 0.73},
      {"variant": "U12C U81A", "self-cleavage": 1},
      {"variant": "U12C U81C", "self-cleavage": 1.11},
      {"variant": "U12C A107U", "self-cleavage": 0.66},
      {"variant": "U12C A107C", "self-cleavage": 1.53},
      {"variant": "U13C A43U", "self-cleavage": 1.29},
      {"variant": "U13C A43C", "self-cleavage": 0.84},
      {"variant": "U13C A43G", "self-cleavage": 0.99},
      {"variant": "U12G A69U", "self-cleavage": 0.08},
      {"variant": "U12C G105A", "self-cleavage": 1.54},
      {"variant": "U12G A107G", "self-cleavage": 1.58},
      {"variant": "U12G A107U", "self-cleavage": 0.98},
      {"variant": "U12G U23A", "self-cleavage": 0.85},
      {"variant": "U13A G137A", "self-cleavage": 1.13},
      {"variant": "U13A A92G", "self-cleavage": 0.12},
      {"variant": "U13C A31U", "self-cleavage": 1.1},
      {"variant": "U12G U20C", "self-cleavage": 1.02},
      {"variant": "U12C U143C", "self-cleavage": 1.46},
      {"variant": "U12C C103A", "self-cleavage": 1.01},
      {"variant": "U12G A94G", "self-cleavage": 0.42},
      {"variant": "U12G A94U", "self-cleavage": 0.24},
      {"variant": "U13A C37U", "self-cleavage": 0.72},
      {"variant": "U12A U15C", "self-cleavage": 0.92},
      {"variant": "U12A U15A", "self-cleavage": 0.95},
      {"variant": "U13C A78U", "self-cleavage": 1.81},
      {"variant": "U13C A78G", "self-cleavage": 0.99},
      {"variant": "U12G U13C", "self-cleavage": 0.95},
      {"variant": "U12G C98U", "self-cleavage": 0.41},
      {"variant": "U12C U130A", "self-cleavage": 1.49},
      {"variant": "U12C G97A", "self-cleavage": 0.22},
      {"variant": "U13A U23C", "self-cleavage": 1.62},
      {"variant": "U12G A22C", "self-cleavage": 1.68},
      {"variant": "U12C C18U", "self-cleavage": 1.28},
      {"variant": "U12C C18G", "self-cleavage": 2.1},
      {"variant": "U12A C123U", "self-cleavage": 1.38},
      {"variant": "U13C", "self-cleavage": 1.15},
      {"variant": "U13A", "self-cleavage": 0.98},
      {"variant": "U12C U108A", "self-cleavage": 1.25},
      {"variant": "U12C U108C", "self-cleavage": 1.66},
      {"variant": "U12A U87C", "self-cleavage": 0.25}
    ]}
  ]
}
